Laboratory results published in patent US20200123227A1, “INTERFERON PRODRUG FOR THE TREATMENT OF CANCER” (The Board of Regents of the University of Texas System, published 2020).

B1: Mouse IFNAR2-ECD (receptor)
chain: SLETITPSAFDGYPDEPCTINITIRNSRLILSWELENKSGPPANYTLWYTVMSKDENLTKVKNCSDTTKSSCDVTDKWLEGMESYVVAIVIVHRGDLTVCRCSDYIVPANAPLEPPEFEIVGFTDHINVTMEFPPVTSKIIQEKMKTTPFVIKEQIGDSVRKKHEPKVNNVTGNFTFVLRDLLPKTNYCVSLYFDDDPAIKSPLKCIVLQPGQESGLSESA
B2: Mouse IFNAR1-ECD (receptor)
chain: ENLKPPENIDVYIIDDNYTLKWSSHGESMGSVTFSAEYRTKDEAKWLKVPECQHTTTTKCEFSLLDTNVYIKTQFRVRAEEGNSTSSWNEVDPFIPFYTAHMSPPEVRLEAEDKAILVHISPPGQDGNMWALEKPSFSYTIRIWQKSSSDKKTINSTYYVEKIPELLPETTYCLEVKAIHPSLKKHSNYSTVQCISTTVANKMPVPGNLQVDAQGKSYVLKWDYIASADVLFRAQWLPGYSKSSSGSRSDKWKPIPTCANVQTTHCVFSQDTVYTGTFFLHVQASEGNHTSFWSEEKFIDSQKHILPPPPVITVTAMSDTLLVYVNCQDSTCDGLNYEIIFWENTSNTKISMEKDGPEFTLKNLQPLTVYCVQARVLFRALLNKTSNFSEKLCEKTRPGSFST

What was measured:
human R2-SUB (human) = human R2-SUB (human) (UniProt P01563)
[1] = target: cell surface IFNAR1/IFNAR2 heterodimer (RAW-Lucia ISG cells) (Mus musculus (Mouse)) (UniProt P33896)
IFNa4-Fc = IFNa4-Fc (human); assay: cell-based or functional assay

Molecule	IFN activity, luciferase reporter assay in RAW-Lucia ISG cells [1]	IFN activity, luciferase reporter assay in RAW-Lucia ISG cells (IFNa4-Fc)	other results
rmMMP-9 (from UniProt P41245) (enzyme)			cleavage by rmMMP-9 at 37 C for 0, 0.5, 2 or 6 hours, digests separated on a stain-free gel (human R2-SUB (human)): 100%
R1-IFNa4-Fc (from UniProt P07351) (Fc fusion)	< 125 fold		
R2-IFNa4-Fc (from UniProt P07351) (Fc fusion)	> 125 fold		
B1		≥ 125 fold	
B2		≥ 125 fold	
